Consider 141 substances from the supplement of paper PMC12042874.

± gives the uncertainty stated by the source.

The nature of this series: amyloid nucleation score (Sup35N fusion, yeast selection) (log enrichment); library NNK2; higher = more nucleation; inactive = no reads after selection. The essentials: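 Psi-negative yeast expressed Sup35N fused to peptides of 20 random codons. They were induced 24 hours with 100 μM copper sulfate, grown 7 days at 30°C without adenine and uracil, and their plasmid inserts from input and output were Illumina-sequenced. The nucleation score is the DiMSum log enrichment of output over input reads, centred on the mode score of non-aggregating sequences. Sequences with under 100 input reads were excluded.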

YAGYNISCP: the amyloid nucleation score result was “inactive”.

For the substance YGYCIISHTLNLLLGQYLCY, the amyloid nucleation score came out at 4.99 ± 0.068.

The substance SGHTFVFFYDSK gave an amyloid nucleation score of 5.95 ± 0.061.

As for LFTVWVASVVWSCADVA, the amyloid nucleation score is -1.34 ± 0.78.

YEIRWFRGLIK showed an amyloid nucleation score of 0.495 ± 0.43.

Regarding CCYLFRSLRLVGSQIFSQSL, the amyloid nucleation score turned out to be 0.35 ± 0.8.

Substance SRRVLYMVVPPLVF gave an amyloid nucleation score of -1.36 ± 0.54.

PRPVLAAALAKPLGTS registered an amyloid nucleation score of 0.87 ± 0.23.

Consider AGKFYAGRHNSD, for which the amyloid nucleation score result was “inactive”.

RISVYRPVGVLLF displayed an amyloid nucleation score of 0.755 ± 0.4.

TRSTNVQLDPYFYLW: the amyloid nucleation score was -1.16 ± 0.39.

The substance GRCWI displayed an amyloid nucleation score of 1.39 ± 0.24.

With KNDLRSSGWTAGSGISLEEG, the amyloid nucleation score is -0.365 ± 0.76.

Take LATKTLSMSLESICRNTVAF: the amyloid nucleation score entry was “inactive”.

Turning to LYRSVGFGIVEFDH, the amyloid nucleation score entry was “inactive”.

The substance FLVNVFM showed an amyloid nucleation score of 8.001 ± 0.025.

AAIMMN: the amyloid nucleation score was -0.231 ± 0.62.

SKFVSKSEV gave an amyloid nucleation score of -0.983 ± 1.1.

In the case of VDHLFIRIHSVMIPAL, the amyloid nucleation score was -0.447 ± 1.1.

In the case of ITMSYTLGPSCFFWSLADTY, the amyloid nucleation score amounted to 8.218 ± 0.065.

As for NKEECL, the amyloid nucleation score turned out to be 0.021 ± 0.35.

LVMTHAMFVSLWCGRTVFLL displayed an amyloid nucleation score of 0.014 ± 0.49.

Take TLLSNTSKLFLLHNYHQWVM: the amyloid nucleation score worked out at 0.062 ± 0.74.

For the substance YFRMNPKFVCTKYSNAEYLS, the amyloid nucleation score was -0.427 ± 0.64.

RFMVFGNLYDERYTVRFLMR registered an amyloid nucleation score of 3.66 ± 0.089.

As for REHSYLSIFLWMCAFVTNVE, the amyloid nucleation score is -0.98 ± 1.1.

Take YRGLTSLYLFNQV: the amyloid nucleation score is -0.08 ± 0.23.

Substance SIILLDYCPRRNSSTIALRH yielded an amyloid nucleation score of -0.118 ± 0.43.

As to NPNELLLSSCFFHYLVKPWG, the amyloid nucleation score entry is “inactive”.

In the case of NSRGN, the amyloid nucleation score was -0.293 ± 0.56.

Take GRTVQIMDRVFS: the amyloid nucleation score was -1.12 ± 0.76.

Substance RTGAMPSR gave an amyloid nucleation score of 0.518 ± 0.51.

Turning to SRYSSV, the amyloid nucleation score was found to be 0.172 ± 0.65.

Turning to MVIYHVPQYVRYWQP, the amyloid nucleation score was 0.017 ± 0.63.

As for RLDWREVHWLVRKTLL, the amyloid nucleation score was determined as 0.648 ± 0.16.

Regarding LDPNSYHKSRWFNMMSFIRV, the amyloid nucleation score is 0.611 ± 0.81.

The substance KWKLMCDAFLS displayed an amyloid nucleation score of -0.969 ± 0.48.

As to IRIACSGLSDRFMNRVHLHS, the amyloid nucleation score was -0.017 ± 0.46.

SCNQDYTDSLSRAELKVDSS displayed an amyloid nucleation score of -1.07 ± 0.62.

Take NSAVATYCVVGQVPEK: the amyloid nucleation score is 0.883 ± 0.44.

Substance ALLFYGKMY came in with an amyloid nucleation score of 5.966 ± 0.052.

In turn, SSYLMTYC came in with an amyloid nucleation score of -0.104 ± 0.35.

Turning to NFSYRSFNRLVRGRD, the amyloid nucleation score entry is “inactive”.

For DGYLRYYSNLDG, the amyloid nucleation score is 0.147 ± 1.1.

In the case of HVMCR, the amyloid nucleation score came out at 0.225 ± 0.19.

For the substance INIRLFFHDFTRMGSELIGY, the amyloid nucleation score is 0.318 ± 0.8.

As for PSIDSCRGRLVVRVQIRVEN, the amyloid nucleation score is -1.24 ± 1.1.

Consider LAWWFY, for which the amyloid nucleation score was -0.325 ± 0.76.

As for GSNCIEVFRGWVKFGMDCFW, the amyloid nucleation score result is “inactive”.

Substance YCILLLNVVVMCYMMCDGFA yielded an amyloid nucleation score of 0.635 ± 0.65.

For the substance AVVFGRGPSGYTHPMFRWPC, the amyloid nucleation score was -0.754 ± 1.1.

QINSHNWYDG came in with an amyloid nucleation score of 0.369 ± 0.8.

VYGCGSCLNCVVCMERCG showed an amyloid nucleation score of 9.094 ± 0.048.

In turn, LYGTE displayed an amyloid nucleation score of 0.244 ± 0.2.

With VYELCCLYMWLGHSNYAADM, the amyloid nucleation score came out at 5.33 ± 0.044.

ATMVSPTSQLAPNMYNASLT: the amyloid nucleation score stood at 5.97 ± 0.085.

As for NSVRSV, the amyloid nucleation score entry was “inactive”.

In the case of DLYRYNMLKDVV, the amyloid nucleation score was found to be 4.403 ± 0.037.

On to IFEAVVRVG, for which the amyloid nucleation score result is “inactive”.

Regarding YRCVDYKGIEYLLYREMLTT, the amyloid nucleation score is 3.93 ± 0.046.

RAQFIQLGDEYYTRC: the amyloid nucleation score amounted to 0.564 ± 0.49.

In the case of TAKLFDISTCKCPD, the amyloid nucleation score is -0.105 ± 0.79.

For the substance SKVSKGLHST, the amyloid nucleation score entry was “inactive”.

Consider YGFSGMMNSFSFHGC, for which the amyloid nucleation score amounted to 6.07 ± 0.083.

On to SVSQPYSKSVGLRGRGKQGQ, for which the amyloid nucleation score came out at 0.737 ± 0.46.

Consider LTTMFFIMCHEFNLLAVFNY, for which the amyloid nucleation score was found to be 1.27 ± 0.26.

For the substance RQTGRLDFRTISRVKVDVIV, the amyloid nucleation score came to 1.92 ± 0.28.

Substance IRKYVAWNLRALTMAMIQQR showed an amyloid nucleation score of -0.959 ± 0.48.

As for IVVKFCWCVGQSRYTGMSTN, the amyloid nucleation score was 6.71 ± 0.052.

Substance NLHVGREPQGSEYVDPFSVV displayed an amyloid nucleation score of 0.731 ± 0.25.

MTFVHVSNMWDRNEGICGDE came in with an amyloid nucleation score of -0.323 ± 0.41.

RNSMGTFSRWYPIMY had an amyloid nucleation score of -0.54 ± 0.48.

SRDCVRDLSVMCSLWKWFPV yielded an amyloid nucleation score of -0.394 ± 1.1.

FREVSSLRCIIFLHITCRNS yielded an amyloid nucleation score of 0.647 ± 0.57.

The substance ADHELVVITDVGFRLGSTGD gave an amyloid nucleation score of -0.226 ± 0.37.

The substance RHTYVHYAHKVYLESFLGCG had an amyloid nucleation score of 6.327 ± 0.04.

As to LWYMMYLRPLWVRPKIDNEV, the amyloid nucleation score was determined as 1.11 ± 0.24.

NCRFFIADVSLYPTWFIFYF: the amyloid nucleation score came out at 2.82 ± 0.12.

Take AMSSA: the amyloid nucleation score came to 0.906 ± 0.52.

In turn, ISAETPMIAFCLVPLNPRSV came in with an amyloid nucleation score of 1.06 ± 0.68.

SKFFCVSSVRFRLCVWG: the amyloid nucleation score is -0.14 ± 1.

For the substance RVIVGRYWQSTDVVYYIWNF, the amyloid nucleation score was -1.59 ± 0.76.

Turning to SVDGMLSVSVLVNDVVKTPL, the amyloid nucleation score came out at 0.309 ± 0.22.

ANKTVFVLEMVGVRGFYLMP registered an amyloid nucleation score of 2.66 ± 0.098.

Turning to GAIIDITRFGFLLYF, the amyloid nucleation score was -0.847 ± 0.34.

In turn, CFSNFVG yielded an amyloid nucleation score of 0.746 ± 0.31.

The substance NPIGFFHDLGVWIWWSSMAT had an amyloid nucleation score of -1.26 ± 1.1.

YSLLLTIKPTTSWRCVSDGH came in with an amyloid nucleation score of 2.27 ± 0.23.

The substance CQISGCYWV registered an amyloid nucleation score of 5.28 ± 0.074.

As for KYVIR, the amyloid nucleation score is -0.606 ± 1.1.

As to IWGGKDLFGGQDWNTLSYLP, the amyloid nucleation score is -0.283 ± 0.6.

Substance TVAKSLVYLSVCQVAA yielded an amyloid nucleation score of 0.035 ± 1.

DRYWLERWSDGNCGRSARIR registered an amyloid nucleation score of 1.22 ± 0.4.

In the case of SILATYPMVRSRISIMNATL, the amyloid nucleation score was -0.174 ± 0.28.

LVGWSLHSITFPEWRGHNPK: the amyloid nucleation score was -0.991 ± 1.1.

PFQSNNSEVDGSYYMSVRC displayed an amyloid nucleation score of -0.705 ± 0.39.

Substance NQDPRSRLLSNELYGCHFVL registered an amyloid nucleation score of -0.214 ± 0.28.

QRCWRSGTFSGM displayed an amyloid nucleation score of -0.107 ± 1.

In turn, AINAKRHTWLFNLHSTFLCF yielded an amyloid nucleation score of 2.8 ± 0.14.

EKFESERISFRAMGQGEVLR returned an amyloid nucleation score of 4.61 ± 0.079.

On to PGILRTFVETEYCITI, for which the amyloid nucleation score result is “inactive”.

Turning to FSRSVKRLIVDVLRNKVCI, the amyloid nucleation score stood at 0.58 ± 0.54.

Turning to LFAYYGWVFYMSIRCVHMGM, the amyloid nucleation score was -0.583 ± 1.1.

Consider RMPFHVFRIKFHFLLRVPIQ, for which the amyloid nucleation score stood at 0.851 ± 0.52.

Consider RTMSNGSDVCFNNGMFHYLN, for which the amyloid nucleation score was -1.04 ± 0.76.

Turning to IGLANSSVCFSAFVTWYSLH, the amyloid nucleation score result is “inactive”.

In turn, VQMGRPWTGALMVSYMIVNH had an amyloid nucleation score of 6.18 ± 0.063.

Regarding FFCGMRPYVLVNCLCVFREN, the amyloid nucleation score worked out at 6.374 ± 0.029.

Consider REFMNFWHWRVCICAQE, for which the amyloid nucleation score is -0.501 ± 0.38.

YRYAASVPKCNTGSRDVAQT gave an amyloid nucleation score of 0.942 ± 0.35.

As to SMYVDVFLRFGSWLHSFT, the amyloid nucleation score is -0.127 ± 0.74.

YNYLLLSMVPSSILSRSYVQ: the amyloid nucleation score was -0.161 ± 1.1.

With YCYVSRVFYRMCALAGWMGL, the amyloid nucleation score result was “inactive”.

DRSRLGVGGVDVLWFLHSSK came in with an amyloid nucleation score of 5.328 ± 0.046.

Turning to DRTGGPIWVVGYPARGRAAL, the amyloid nucleation score is 0.99 ± 0.29.

Take LNTIFTKIIGFSA: the amyloid nucleation score was -1.52 ± 0.49.

Regarding NICIN, the amyloid nucleation score entry was “inactive”.

Regarding SFGDTSKRWLFAVGGCKCRL, the amyloid nucleation score is 0.371 ± 0.51.

Turning to TGLDFGNLLLARCMSRV, the amyloid nucleation score was determined as 0.43 ± 0.32.

In turn, CMGFSSLFFQGWVVIDCLW gave an amyloid nucleation score of -1.1 ± 0.76.

SQKNCCKVEGRLMASRVKPR displayed an amyloid nucleation score of 0.155 ± 1.1.

Substance NRSVCLYYFAQVYKCCSNAV yielded an amyloid nucleation score of 3.42 ± 0.14.

HAPPNCVSSIHSRRVSSWHE yielded an amyloid nucleation score of 0.333 ± 0.65.

As to ITFMVLM, the amyloid nucleation score amounted to 6.6 ± 0.074.

YLTNNLVLWFDICDEERYWW returned an amyloid nucleation score of 5.45 ± 0.059.

For AYYLFYTRGEFR, the amyloid nucleation score is 3.2 ± 0.09.

In turn, RDGKDRAYCGW displayed an amyloid nucleation score of 0.483 ± 0.5.

Substance DSSSVGGVLPVCVNSKSMED registered an amyloid nucleation score of -0.236 ± 0.41.

With GGERYHPYYDAA, the amyloid nucleation score turned out to be 0.268 ± 0.54.

Substance IINYANLSTVVNFYIRIGYC returned an amyloid nucleation score of 6.812 ± 0.028.

The substance LSMELNGYYILVCDLDFVTE yielded an amyloid nucleation score of 1.5 ± 0.16.

For YYYTLLSLHHMFCVTYELSG, the amyloid nucleation score was 5.443 ± 0.035.

FVKWIMY gave an amyloid nucleation score of 4.09 ± 0.098.

On to NRHPRRYRNNAGDDSLMRIL, for which the amyloid nucleation score was 1.74 ± 0.096.

CVTDATVKNYI came in with an amyloid nucleation score of -1.42 ± 0.78.

CGRSRKRCIRASRSGSLNMC came in with an amyloid nucleation score of 0.293 ± 0.53.

NVFMRYTKFYMCLELGNCWG gave an amyloid nucleation score of -0.331 ± 0.5.

In turn, YAFSMDRWVDLMLFQRV displayed an amyloid nucleation score of 4.96 ± 0.092.

The substance FFSRFERPLQCNIFKL displayed an amyloid nucleation score of 4.13 ± 0.12.

With WIILGTSSAVWRTHDYLA, the amyloid nucleation score was 3.43 ± 0.06.

DCRFQIHVCDAYDK: the amyloid nucleation score entry is “inactive”.
